Assay results as given in US20190195891A1, “DIAGNOSTIC AND THERAPEUTIC USES OF EXOSOMES” (Yeda Research and Development Co. Ltd., priority 2016, published 2019).

Key:
[1] = tested on: MLKL knocked-down HT-29 cells; experiment: Yield of exosomes in MLKL knocked-down HT-29 cells inducibly expressing MLKL mutants; format: cell-based, human; details: inducible expression, compared to wild-type MLKL
Source text: (§1) The various mutants of MLKL were expressed inducibly in HT-29 cells in which the endogenous MLKL mRNA was constitutively knocked down. Expression was achieved by lentiviral infection with the GEV16/pF5x UAS system as described previously [Dunning C J et al. The EMBO Journal (2007) 26, 3227-3237, doi:10.1038/sj.emboj.7601748].
In all experiments aimed at assessing the generation of exosomes by cultured cells, the FBS supplementing the growth medium was pre-depleted of bovine exosomes by centrifugation at […] for 18 hours. Except where otherwise indicated, the exosomes were collected after 12 hours of incubation. The stimuli whose effect on exosome generation was to be assessed were applied for the indicated times towards the end of this 12 hour period. Unless otherwise indicated, TBZ was applied for 4 hours. For recovery of exosomes from the mice, mouse blood samples were collected in MiniCollect®TUBEs (Greiner Bio-One) and centrifuged at 3000 rpm for 15 minutes. Mouse plasma and cell-growth media were passed through 0.2 μm filters and centrifuged at […] for 90 minutes, after which the pellet was suspended in phosphate-buffered saline (PBS) and re-sedimented by centrifugation as above. Size spectra and amounts of the particles in the exosome preparations were determined by Nanoparticle Tracking Analysis using the NanoSight NS300 device (Malvern Instruments) according to the manufacturer's instructions.

[2] = tested on: MLKL knocked-down HT-29 cells; experiment: Cell death in MLKL knocked-down HT-29 cells inducibly expressing MLKL mutants; format: cell-based, human; details: induced expression of the mutant
Source text: as §1
Cell death was quantified using the Cytotoxicity Detection Kit (Roche Applied Science) to determine the concentration of lactic dehydrogenase (LDH) in the mouse cell media or plasma.

B1: MLKL deletion mutant corresponding to its 180 N-terminal amino acid coiled-coil region: MLKL deletion mutant, 180 N-terminal amino acids (protein, UniProt Q8NB16 1-180, looked up, fragment)
chain: MENLKHIITLGQVIHKRCEEMKYCKKQCRRLGHRVLGLIKPLEMLQDQGKRSVPSEKLTTAMNRFKAALEEANGEIEKFSNRSNICRFLTASQDKILFKDVNRKLSDVWKELSLLLQVEQRMPVSPISQGASWAQEDQQDADEDRRAFQMLRRDNEKIEASLRRLEINMKEIKETLRQYL
Question: How did the generation of exosomes [1] turn out when B1 was run?
Answer: significantly lower

Question: And the cell death [2]?
Answer: triggers necrotic death of the cells
